This is an account of results in patent US20210221899A1 (published 2021).

Residue numbers refer to the chain shown, from its start.

Assay [1] concerns the target T1, human NGF (human, UniProt P01138 122-241).
T1 construct: also called human Nerve Growth Factor; hN
T1 chain: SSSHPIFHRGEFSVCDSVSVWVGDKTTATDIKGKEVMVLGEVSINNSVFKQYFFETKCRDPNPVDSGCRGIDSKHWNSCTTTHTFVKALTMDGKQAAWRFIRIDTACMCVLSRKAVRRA
Kind of assay: SPR (Biacore T200), 100 nM mAb on NGF chip, similarity to parent mAb. The procedure, abridged: (§1)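 For each alanine substitution in heavy- or light-chain CDRs, binding to an NGF chip was measured by SPR (Biacore T200) with 100 nM antibody. The "% similarity score" is the fraction of the mutant's sensorgram points within the parent mAb's mean ±3 SD response-unit window, taken from four replicates.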
(SPR reads the build-up and loss of mass on a sensor chip optically.)

The target in assay [2] is T2, canine NGF (canine, UniProt Q29074 110-229 (pig entry), limits assumed).
T2 construct: The protein was secreted from CHO cells and purified; also called cNGF; canine β-NGF
T2 chain: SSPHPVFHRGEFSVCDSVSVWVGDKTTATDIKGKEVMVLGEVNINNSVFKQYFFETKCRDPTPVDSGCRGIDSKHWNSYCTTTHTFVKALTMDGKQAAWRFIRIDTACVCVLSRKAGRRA
The description is as above. The procedure, abridged:
as §1

Assay [3] has as its target T3, rat NGF (rat, UniProt P25427 122-241).
T3 construct: also called rN
Described as above. The method, boiled down:
as §1

For assay [4], the target named is T1, human NGF. Kind of assay: SPR (Biacore), human NGF amine-coupled on chip, antibody injected. Here is the method: Antibody binding affinities of the antibodies against human NGF (SEQ ID NO.66) were determined by surface plasmon resonance (SPR). Human NGF was immobilized on the surface of a BIACORE chip by direct amine coupling. Various concentrations of the described humanized anti-NGF antibodies were injected over the human NGF surfaces while the association of the antibody to the antigen and the dissociation of the formed complex were monitored in real time. Kinetic analysis was performed to obtain the equilibrium dissociation constant (KD).

The target of assay [5] is T2, canine NGF. Kind of assay: SPR (Biacore), NGF amine-coupled on chip, antibody injected. Here is the method: (§2) Antibody binding affinities of the antibodies against canine NGF were determined by surface plasmon resonance (SPR) on a Biacore system (Biocore Life Sciences (GE Healthcare), Uppsala, Sweden). Immobilization of canine and rat NGF were obtained by amine coupling […] NGF using N-hydroxysuccinimide (NHS)/1-Ethyl-3-(3-dimethylaminopropyl) carbodiimide (EDC) chemistry. Chips were quenched with ethanolamine and the affinity with which all candidate mAbs bound to the immobilized NGF was evaluated. Various concentrations of canine and felinized anti-NGF antibodies were injected over the NGF surfaces while the association of the antibody to the antigen and the dissociation of the formed complex were monitored in real time. Kinetic analysis was performed to obtain the equilibrium dissociation constant (KD).

The target in assay [6] is T3, rat NGF. Described as above. On the procedure: as §2

T3 sequence (P25427 122-241 limits assumed): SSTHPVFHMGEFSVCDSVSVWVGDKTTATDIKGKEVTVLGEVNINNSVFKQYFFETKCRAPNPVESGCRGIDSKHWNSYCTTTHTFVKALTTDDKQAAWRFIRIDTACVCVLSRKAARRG

B1: can48L2VL_M27A (antibody, V domains shown)
VH: EVQLVESGGDLVKPGGSLRLSCVASGFTFSTYGINWVRQAPGKGLQWVAYISSGGSSTYYADPVKGRFTISRDDAKNMLYLQMNSLRAEDTAIYYCAGSRYTYAYGGGYEFHFWGQGTLVTVSS
VL: QAVLNQPASVSGALGQKVTISCSGSTADIDIFGVSWYQQLPGKAPKLLVDSDGDRPSGIPDRFSGSRSGNSGTLTITGLQAEDEADYHCQSGDSTLGALAIFGGGTHVTVL
notes: CDR scanning mutant of ZTS-842 (48L2)
In the case of B1, the “Percent Similarity Score (KD on hN)” value in the assay with human NGF [1] came to 72.1%. For the same molecule, the “Percent Similarity Score (KD on cN)” value with canine NGF [2] came out at 28%. The “Percent Similarity Score (KD on rN)” value with rat NGF [3] came out at 37.9%.

B2: humanized mAb can48L2VH_HM855323.1 / can48L2VL_Z22192.1 (antibody, V domains shown)
VH: B1 VH with D10G, V23A, Q46E, A49S, P63S, D74N, M78S, I93V
VL: QSVVTQPPSVSGAPGQRVTISCTGSTMDIDIFGVSWYQQLPGTAPKLLIYGDGDRPSGVPDRFSGSKSGASASLAITGLQAEDEADYHCQSGDSTLGALAIFGGGTHVTVL
One may read the Kd as the equilibrium constant for the complex coming apart. A lower Kd goes with a tighter complex. A word on the koff: it is a measure of how fast the partners let go of each other. The low end stands for slow dissociation, the high end for fast dissociation. As usually defined, the kon is a measure of how fast the partners come together. For the molecule B2, in the assay with human NGF [4], the affinity, expressed as Kd, was 1.54 nM; the koff was determined as 0.000256 s⁻¹; the kon was determined as 167000 M⁻¹ s⁻¹.

B3: can48L2VL_T26A (antibody, V domains shown)
VH: B1 VH
VL: B1 VL with T26A, A27M
notes: as for B1
With B3, the “Percent Similarity Score (KD on hN)” value with human NGF [1] turned out to be 99.8%. Also, the “Percent Similarity Score (KD on cN)” value with canine NGF [2] was found to be 97.3%. Also, the “Percent Similarity Score (KD on rN)” value in the assay with rat NGF [3] came to 98%.

B4: humanized mAb can48L2VH_HM855336.1 / can48L2VL_Z22192.1_P8A (antibody, V domains shown)
VH: EVQLVESGGGLVQPGGSLRLSCAASGFTFSTYGMNWVRQAPGKGLEWVSYISSGGSSIYYADSVKGRFTISRDNAKNSLYLQMNSLRAEDTAVYYCAGSRYTYAYGGGYEFHFWGQGTLVTVSS
VL: B2 VL with P8A
In the assay with human NGF [4], B4 showed a Kd of 0.841 nM, a koff of 0.000212 s⁻¹ and a kon of 252000 M⁻¹ s⁻¹.

B5: can48L2VL_Q90A (antibody, V domains shown)
VH: B1 VH
VL: B1 VL with A27M, Q90A
notes: as for B1
In the case of B5, the “Percent Similarity Score (KD on hN)” value with human NGF [1] is 99.9%. Further, in the assay with canine NGF [2], the “Percent Similarity Score (KD on cN)” value was 94.4%. Besides, the “Percent Similarity Score (KD on rN)” value with rat NGF [3] came out at 98.7%.

B6: can48L2VL_S91A (antibody, V domains shown)
VH: B1 VH
VL: B1 VL with A27M, S91A
notes: as for B1
Take B6: the “Percent Similarity Score (KD on hN)” value with human NGF [1] turned out to be 97.5%. Besides, in the assay with canine NGF [2], the “Percent Similarity Score (KD on cN)” value came to 59.6%. For the same molecule, the “Percent Similarity Score (KD on rN)” value with rat NGF [3] was 76.7%.

B7: can48L2VL_S51A (antibody, V domains shown)
VH: B1 VH
VL: B1 VL with A27M, S51A
notes: as for B1
Regarding B7, the “Percent Similarity Score (KD on hN)” value in the assay with human NGF [1] is 100%. For the same molecule, the “Percent Similarity Score (KD on cN)” value with canine NGF [2] stood at 100%. Besides, the “Percent Similarity Score (KD on rN)” value with rat NGF [3] was 100%.

B8: humanized mAb can48L2VH_HM855323.1 / can48L2VL_Z22192.1_P8A (antibody, V domains shown)
VH: B4 VH with Q13K, M34I, I58T
VL: B2 VL with P8A
For the molecule B8, in the assay with human NGF [4], binding was put at a Kd of 1.54 nM, the koff was 0.000315 s⁻¹ and the kon turned out to be 205000 M⁻¹ s⁻¹.

B9: humanized mAb can48L2VH_HM855323.1 / can48L2VL_Z22192.1_P14L (antibody, V domains shown)
VH: B4 VH with Q13K, M34I, I58T
VL: B2 VL with P14L
In the assay with human NGF [4], B9 showed a Kd of 0.00102 nM, a koff of 1.46e-07 s⁻¹ and a kon of 144000 M⁻¹ s⁻¹.

B10: humanized mAb can48L2VH_HM855336.1 / can48L2VL_Z22192.1 (antibody, V domains shown)
VH: B4 VH
VL: B2 VL
In the assay with human NGF [4], B10 had a Kd of 1.25 nM, an off-rate constant (koff) of 0.000337 s⁻¹ and a kon of 269000 M⁻¹ s⁻¹.

B11: can48L2VL_T95A (antibody, V domains shown)
VH: B1 VH
VL: B1 VL with A27M, T95A
notes: as for B1
Regarding B11, the “Percent Similarity Score (KD on hN)” value in the assay with human NGF [1] came to 99.6%. In addition, in the assay with canine NGF [2], the “Percent Similarity Score (KD on cN)” value turned out to be 94.9%. For the same molecule, the “Percent Similarity Score (KD on rN)” value with rat NGF [3] is 99.4%.

B12: humanized mAb can48L2VH_HM855336.1 / can48L2VL_Z22192.1_P14L (antibody, V domains shown)
VH: B4 VH
VL: B2 VL with P14L
As for B12, in the assay with human NGF [4], binding was characterised by a dissociation constant (Kd) of 1.49 nM, the koff came to 0.000422 s⁻¹ and the kon is 283000 M⁻¹ s⁻¹.

B13: can48L2VL_S94A (antibody, V domains shown)
VH: B1 VH
VL: B1 VL with A27M, S94A
notes: as for B1
With B13, in the assay with human NGF [1], the “Percent Similarity Score (KD on hN)” value came to 100%. Besides, the “Percent Similarity Score (KD on cN)” value with canine NGF [2] was 97.8%. Further, in the assay with rat NGF [3], the “Percent Similarity Score (KD on rN)” value stood at 99.3%.

B14: ZTS-841 (antibody, V domains shown)
VH: EVQLVESGGDLVKPGGSLRLSCVASGFTFSSHGMHWVRQSPGKGLQWVAVINSGGSSTYYTDAVKGRFTISRDNAKNTVYLQMNSLRAEDTAMYYCAKESVGGWEQLVGPHFDYWGQGTLVIVSS
VL: QSVLTQPTSVSGSLGQRVTISCSGSTNNIGILGASWYQLFPGKAPKLLVYGNGNRPSGVPDRFSGADSGDSVTLTITGLQAEDEADYYCQSFDTTLGAHVFGGGTHLTVL
notes: Canine mAb; also called 9L12; can9L12
In the assay with canine NGF [5], B14 showed a Kd of 0.0506 nM, a koff of 2.36e-05 s⁻¹ and a kon of 527000 M⁻¹ s⁻¹. In the assay with rat NGF [6], this molecule gave a Kd of 0.108 nM, a koff of 4.61e-05 s⁻¹ and a kon of 587000 M⁻¹ s⁻¹.

B15: can9L12VH_I50A (antibody, V domains shown)
VH: B14 VH with I51A
VL: B14 VL
For the molecule B15, in the assay with human NGF [1], the “Percent Similarity Score (KD on hN)” value stood at 96.6%. Also, the “Percent Similarity Score (KD on cN)” value with canine NGF [2] was 100%. Besides, the “Percent Similarity Score (KD on rN)” value with rat NGF [3] turned out to be 92%.

B16: can9L12VH_D113A (antibody, V domains shown)
VH: B14 VH with D113A
VL: B14 VL
Turning to B16, the “Percent Similarity Score (KD on hN)” value in the assay with human NGF [1] is 100%. For the same molecule, the “Percent Similarity Score (KD on cN)” value with canine NGF [2] was determined as 100%. Further, the “Percent Similarity Score (KD on rN)” value with rat NGF [3] turned out to be 100%.

B17: humanized mAb can9L12VH_HM855939 / can9L12VL (antibody, V domains shown)
VH: QVQLVESGGGVVQPGGSLRLSCAASGFTFSSHGMHWVRQAPGKGLEWVSVINSGGSSTYYADSVKGRFTISRDNSKNTLYLQMNSLRAEDTAVYYCAKESVGGWEQLVGPHFDYWGQGTLVIVSS
VL: B14 VL
In the assay with human NGF [4], B17 came in with a Kd of 4.12 nM, a koff of 0.00161 s⁻¹ and a kon of 390000 M⁻¹ s⁻¹.

B18: humanized mAb can9L12VH / can9L12VL_M94116_65698 (antibody, V domains shown)
VH: B14 VH
VL: QSVLTQPTSVSGAPGQRVTISCTGSTNNIGILGVHWYQQLPGTAPKLLIYGNGNRPSGVPDRFSGADSGDSVSLAITGLQAEDEADYYCQSFDTTLGAHVFGGGTHLTVL
In the assay with human NGF [4], B18 showed a Kd of 9.19 nM, a koff of 0.00197 s⁻¹ and a kon of 214000 M⁻¹ s⁻¹.

B19: humanized mAb can9L12VH_X92218 / can9L12VL (antibody, V domains shown)
VH: B17 VH with Q1E, V11L, H35S
VL: B14 VL
As to B19, in the assay with human NGF [4], binding was put at a Kd of 0.126 nM, the koff was 3.78e-05 s⁻¹ and the kon came out at 301000 M⁻¹ s⁻¹.
